Data taken from article PMC3764422, “A model of yeast glycolysis based on a consistent kinetic characterisation of all its enzymes” (Febs Letters, 2013).

Biological target: T1, phosphofructokinase beta subunit Pfk2p (S. cerevisiae, UniProt P16862 1-959)
T1 sequence (looked up): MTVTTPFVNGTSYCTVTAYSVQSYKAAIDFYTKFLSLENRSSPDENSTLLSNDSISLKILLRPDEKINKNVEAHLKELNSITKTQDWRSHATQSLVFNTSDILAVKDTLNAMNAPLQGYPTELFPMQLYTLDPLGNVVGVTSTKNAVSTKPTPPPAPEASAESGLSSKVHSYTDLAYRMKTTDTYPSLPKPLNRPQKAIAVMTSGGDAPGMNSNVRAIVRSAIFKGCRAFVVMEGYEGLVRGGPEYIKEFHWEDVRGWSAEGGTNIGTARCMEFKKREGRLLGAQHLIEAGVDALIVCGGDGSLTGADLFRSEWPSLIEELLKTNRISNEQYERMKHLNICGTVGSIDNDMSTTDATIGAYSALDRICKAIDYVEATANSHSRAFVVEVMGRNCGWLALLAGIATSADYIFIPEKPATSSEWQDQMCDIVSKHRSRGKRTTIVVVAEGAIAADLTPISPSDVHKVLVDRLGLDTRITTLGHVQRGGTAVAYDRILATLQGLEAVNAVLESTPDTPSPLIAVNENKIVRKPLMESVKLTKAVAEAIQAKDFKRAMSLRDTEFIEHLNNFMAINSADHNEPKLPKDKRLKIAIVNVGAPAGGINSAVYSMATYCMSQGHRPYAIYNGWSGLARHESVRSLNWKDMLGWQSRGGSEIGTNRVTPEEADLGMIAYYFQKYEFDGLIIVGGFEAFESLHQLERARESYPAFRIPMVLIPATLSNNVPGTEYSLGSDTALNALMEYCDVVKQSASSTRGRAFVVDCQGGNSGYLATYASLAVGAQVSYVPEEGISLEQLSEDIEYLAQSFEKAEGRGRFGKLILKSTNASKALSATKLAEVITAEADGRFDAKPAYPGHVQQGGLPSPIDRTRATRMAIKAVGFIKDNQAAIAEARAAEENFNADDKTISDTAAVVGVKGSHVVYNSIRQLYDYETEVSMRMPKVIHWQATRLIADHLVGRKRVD
Assay: cell-based or functional assay

kcat of phosphofructokinase, Pfk1p:Pfk2p co-expressed and co-purified (spectrophotometric coupled assay, 30 °C): 210 s⁻¹
B1: phosphofructokinase alpha subunit Pfk1p (enzyme, S. cerevisiae, UniProt P16861 1-987, looked up)
chain: MQSQDSCYGVAFRSIITNDEALFKKTIHFYHTLGFATVKDFNKFKHGENSLLSSGTSQDSLREVWLESFKLSEVDASGFRIPQQEATNKAQSQGALLKIRLVMSAPIDETFDTNETATITYFSTDLNKIVEKFPKQAEKLSDTLVFLKDPMGNNITFSGLANATDSAPTSKDAFLEATSEDEIISRASSDASDLLRQTLGSSQKKKKIAVMTSGGDSPGMNAAVRAVVRTGIHFGCDVFAVYEGYEGLLRGGKYLKKMAWEDVRGWLSEGGTLIGTARSMEFRKREGRRQAAGNLISQGIDALVVCGGDGSLTGADLFRHEWPSLVDELVAEGRFTKEEVAPYKNLSIVGLVGSIDNDMSGTDSTIGAYSALERICEMVDYIDATAKSHSRAFVVEVMGRHCGWLALMAGIATGADYIFIPERAVPHGKWQDELKEVCQRHRSKGRRNNTIIVAEGALDDQLNPVTANDVKDALIELGLDTKVTILGHVQRGGTAVAHDRWLATLQGVDAVKAVLEFTPETPSPLIGILENKIIRMPLVESVKLTKSVATAIENKDFDKAISLRDTEFIELYENFLSTTVKDDGSELLPVSDRLNIGIVHVGAPSAALNAATRAATLYCLSHGHKPYAIMNGFSGLIQTGEVKELSWIDVENWHNLGGSEIGTNRSVASEDLGTIAYYFQKNKLDGLIILGGFEGFRSLKQLRDGRTQHPIFNIPMCLIPATVSNNVPGTEYSLGVDTCLNALVNYTDDIKQSASATRRRVFVCEVQGGHSGYIASFTGLITGAVSVYTPEKKIDLASIREDITLLKENFRHDKGENRNGKLLVRNEQASSVYSTQLLADIISEASKGKFGVRTAIPGHVQQGGVPSSKDRVTASRFAVKCIKFIEQWNKKNEASPNTDAKVLRFKFDTHGEKVPTVEHEDDSAAVICVNGSHVSFKPIANLWENETNVELRKGFEVHWAEYNKIGDILSGRLKLRAEVAALAAENK
